{
  "source": "patent US20230235004A1",
  "about": "(published 2023)",
  "binders": {"B1": {"name": "MAdCAM antibody Table 1 clone 10 (scFv)", "scFv": "QVQLVQSGAEVKKPGASVKVSCKASGYTLTTWYMYWVRQAPGQGLEWMGWINPNRGATNYAQKFQGRVTMTRDTSTSTVYMELSSLRSEDTAVYYCAKGDLWGAMDVWGQGTLVTVSSGGGGSGGGGSGGGGSGGGGSDIQMTQSPSSLSASVGDRVTITCRASDNIGSWLAWYQQKPGKAPKLLIYAASSLQSGVPSRFSGSGSGTDFTLTISSLQPEDFATYYCQQGYSTPPTFGQGTKVEIK"}, "B2": {"name": "MAdCAM antibody Table 1 clone 25 (scFv)", "scFv": "B1 scFv"}, "B3": {"name": "MAdCAM antibody Table 1 clone 30 (scFv)", "scFv": "B1 scFv"}, "B4": {"name": "MAdCAM antibody Table 1 clone 26 (scFv)", "scFv": "B1 scFv with L113T"}, "B5": {"name": "MAdCAM antibody Table 1 clone 31 (scFv)", "scFv": "QVQLVQSGAEVKKPGASVKVSCKASGYTFTSYYMHWVRQAPGQGLEWMGIINPSGGSTSYAQKFQGRVTMTRDTSTSTVYMELSSLRSEDTAVYYCARDTGYSYGRYYYYGMDVWGQGTLVTVSSGGGGSGGGGSGGGGSGGGGSDIQMTQSPSSLSASVGDRVTITCRASQSIGRWLAWYQQKPGKAPKLLIYDASNLQSGVPSRFSGSGSGTDFTLTISSLQPEDFATYYCQQSYSIPITFGQGTKVEIK"}, "B6": {"name": "MAdCAM antibody Table 1 clone 36 (scFv)", "scFv": "B5 scFv with S31G, Y32H, L120T, Q245G"}, "B7": {"name": "MAdCAM antibody Table 1 clone 29 (scFv)", "scFv": "QVQLVQSGAEVKKPGASVKVSCKASGYTFTSYYMHWVRQAPGQGLEWMAWMNPNSGNTGYAQKFQGRVTMTRDTSTSTVYMELSSLRSEDTAVYYCARDYDFWSGSLGYWGQGTLVTVSSGGGGSGGGGSGGGGSGGGGSDIQMTQSPSSLSASVGDRVTITCRASQGISNYLAWYQQKPGKAPKLLIYAASSLQSGVPSRFSGSGSGTDFTLTISSLQPEDFATYYCQQSYSTPWTFGQGTKVEIK"}, "B8": {"name": "MAdCAM antibody Table 1 clone 21 (scFv)", "scFv": "EVQLLESGGGLVQPGGSLRLSCAASGFTFSNAWMSWVRQAPGKGLEWVSTIVGNGGATYYADSVKGRFTISRDNSKNTLYLQMNSLRAEDTAVYYCARDNPLRWQGMDVWGQGTLVTVSSGGGGSGGGGSGGGGSGGGGSDIQMTQSPSSLSASVGDRVTITCRASQDISNYLNWYQQKPGKAPKLLIYAASSLQSGVPSRFSGSGSGTDFTLTISSLQPEDFATYYCQQSYSIPPTFGPGTKVDIK"}, "B9": {"name": "MAdCAM antibody Table 1 clone 32 (scFv)", "scFv": "QVQLVQSGAEVKKPGASVKVSCKASGYTLTDYYMHWVRQAPGQGLEWMGIINPSGGSTSYAQKFQGRVTMTRDTSTSTVYMELSSLRSEDTAVYYCAREEYSSSSGYFDYWGQGTLVTVSSGGGGSGGGGSGGGGSGGGGSDIQMTQSPSSLSASVGDRVTITCRASQGISSWLAWYQQKPGKAPKLLIYAASSLQSGVPSRFSGSGSGTDFTLTISSLQPEDFATYYCQQSYSTPLTFGQGTKVEIK"}, "B10": {"name": "MAdCAM antibody Table 1 clone 8 (scFv)", "scFv": "EVQLLESGGGLVQPGGSLRLSCAASGFMFGDYAMHWVRQAPGKGLEWVSAISGSGGSTYYADSVKGRFTISRDNSKNTLYLQMNSLRAEDTAVYYCAKDLVVAGIWYFDLWGRGTLVTVSSGGGGSGGGGSGGGGSGGGGSDIQMTQSPSSLSASVGDRVTITCRASQGISNNLNWYQQKPGKAPKLLIYDASSLESGVPSRFSGSGSGTDFTLTISSLQPEDFATYYCQQTHSFPSTFGQGTKLEIK"}, "B11": {"name": "MAdCAM antibody Table 1 clone 16 (scFv)", "scFv": "EVQLLESGGGLVQPGGSLRLSCAASGFTFEDYAMHWVRQAPGKGLEWVSYLNSDGGSTSYADSVKGRFTISRDNSKNTLYLQMNSLRAEDTAVYYCAKDYCTNGVCAFDYWGQGTLVTVSSGGGGSGGGGSGGGGSGGGGSDIQMTQSPSSLSASVGDRVTITCRASQSISTYLNWYQQKPGKAPKLLIYDASNLETGVPSRFSGSGSGTDFTLTISSLQPEDFATYYCQQSYTIPITFGQGTRLEIK"}, "B12": {"name": "MAdCAM antibody Table 1 clone 28 (scFv)", "scFv": "QVQLVQSGAEVKKPGASVKVSCKASGYTFTDYFLHWVRQAPGQGLEWMGWMNPTSGNTGYAQKFQGRVTMTRDTSTSTVYMELSSLRSEDTAVYYCAREGEGSGFDYWGQGTLVTVSSGGGGSGGGGSGGGGSGGGGSDIQMTQSPSSLSASVGDRVTITCRASQGINSWLAWYQQKPGKAPKLLIYDASNLETGVPSRFSGSGSGTDFTLTISSLQPEDFATYYCQQSYSTPLTFGGGTKVEIK"}, "B13": {"name": "MAdCAM antibody Table 1 clone 17 (scFv)", "scFv": "EVQLLESGGGLVQPGGSLRLSCAASGFTFSDSAMHWVRQAPGKGLEWVSAISGSGSTIYYADSVKGRFTISRDNSKNTLYLQMNSLRAEDTAVYYCVSDIAVAGHWYFDLWGRGTLVTVSSGGGGSGGGGSGGGGSGGGGSDIQMTQSPSSLSASVGDRVTITCRASQSISTFLNWYQQKPGKAPKLLIYAASRLEGGVPSRFSGSGSGTDFTLTISSLQPEDFATYYCQQANSFPLTFGPGTKVDIK"}, "B14": {"name": "MAdCAM antibody Table 1 clone 27 (scFv)", "scFv": "QVQLVQSGAEVKKPGASVKVSCKASGYTFTGYYIHWVRQAPGQGLEWMGWMNPNSGNTGYAQKFQGRVTMTRDTSTSTVYMELSSLRSEDTAVYYCARDPGFLGYCSGGSCYDGWFDPWGQGTLVTVSSGGGGSGGGGSGGGGSGGGGSDIQMTQSPSSLSASVGDRVTITCRASQSISSYLHWYQQKPGKAPKLLIYAASSLQSGVPSRFSGSGSGTDFTLTISSLQPEDFATYYCQQSYTAPYTFGQGTKLEIK"}, "B15": {"name": "MAdCAM Antibody Table 2 clone 77 (antibody, V domains shown)", "VH": "EVQLLESGGGLVQPGGSLRLSCAASEFTFSNAWMSWVRQAPGKGLEWVASISSTSAYIDYADSVKGRFTISRDNSKNTLYLQMNSLRAEDTAVYYCAREVVGATTFDYWGQGTLVTVSS", "VL": "DIQMTQSPSSLSASVGDRVTITCRASQSISTWLAWYQQKPGKAPKLLIYAASSLQSGVPSRFSGSGSGTDFTLTISSLQPEDFATYYCQQANAFPPTFGQGTRLEIK", "notes": "IgG format"}, "B16": {"name": "MAdCAM Antibody Table 2 clone 73 (antibody, V domains shown)", "VH": "QVQLVQSGAEVKKPGASVKVSCKASGYTFTSNYVHWVRQAPGQGLEWMGRINPHSGDTSYAQKFQGRVTMTRDTSTSTVYMELSSLRSEDTAVYYCARAGQLWSDWYFDLWGRGTLVTVSS", "VL": "DIQMTQSPSSLSASVGDRVTITCQASQDIRNYLNWYQQKPGKAPKLLIYAATALRTGVPSRFSGSGSGTDFTLTISSLQPEDFATYYCQQSYSHPLTFGQGTKVEIK", "notes": "IgG format"}, "B17": {"name": "MAdCAM Antibody Table 2 clone 80 (antibody, V domains shown)", "VH": "EVQLLESGGGLVQPGGSLRLSCAASGFTFDDYAMHWVRQAPGKGLEWVSAISGSGGSTYYADSVKGRFTISRDNSKNTLYLQMNSLRAEDTAVYYCAKDLGVVVPAALDYWGQGTTVTVSS", "VL": "B16 VL with R30S, Y32H, A50D, T52S, A53N, R55E, T56A, H94T, Q100G", "notes": "IgG format"}, "B18": {"name": "MAdCAM Antibody Table 2 clone 81 (antibody, V domains shown)", "VH": "EVQLLESGGGLVKPGGSLRLSCAASGFAFSSHWMHWVRQAPGKGLEWVAGTSGSGESRDYADFVKGRFTISRDDSKNTLYLQMNSLKTEDTAVYYCARETYYYYYMDVWGKGTTVTVSS", "VL": "DIQMTQSPSSLSASVGDRVTITCRASQGISNYLAWYQQKPGKAPKLLIYDAANLEGGVPSRFSGSGSGTDFTLTISSLQPEDFATYYCQQSDIFPPTFGQGTKVEIK", "notes": "IgG format"}},
  "note": "Residue numbers refer to the chain shown, from its start.",
  "data": [
    {"biological_target": "T1, mouse MAdCAM expressed on cells (mouse, UniProt Q61826 22-405)", "T1 construct": "whole, on cells", "T1 sequence (looked up)": "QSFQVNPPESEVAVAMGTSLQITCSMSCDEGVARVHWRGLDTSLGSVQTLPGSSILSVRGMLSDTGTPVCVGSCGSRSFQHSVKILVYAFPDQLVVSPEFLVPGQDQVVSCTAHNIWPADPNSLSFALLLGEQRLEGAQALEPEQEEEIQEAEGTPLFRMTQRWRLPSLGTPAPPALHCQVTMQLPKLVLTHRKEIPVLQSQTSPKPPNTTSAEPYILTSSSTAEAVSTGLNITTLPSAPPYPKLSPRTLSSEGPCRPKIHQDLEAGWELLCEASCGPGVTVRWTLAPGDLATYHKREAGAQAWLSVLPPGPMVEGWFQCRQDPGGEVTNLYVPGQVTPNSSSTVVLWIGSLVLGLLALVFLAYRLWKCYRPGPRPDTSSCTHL", "experiment": "cell binding", "values": [
      {"binder": "B1", "binding result": "no binding"},
      {"binder": "B2", "binding result": "no binding"},
      {"binder": "B3", "binding result": "no binding"},
      {"binder": "B4", "binding result": "no binding"},
      {"binder": "B5", "binding result": "no binding"},
      {"binder": "B6", "binding result": "no binding"},
      {"binder": "B7", "binding result": "no binding"},
      {"binder": "B8", "binding result": "no binding"},
      {"binder": "B9", "binding result": "no binding"},
      {"binder": "B10", "binding result": "no binding"},
      {"binder": "B11", "binding result": "no binding"},
      {"binder": "B12", "binding result": "no binding"},
      {"binder": "B13", "binding result": "no binding"},
      {"binder": "B14", "binding result": "no binding"}
    ]},
    {"biological_target": "T2, human MAdCAM expressed on cells (human, UniProt Q13477 19-382)", "T2 construct": "whole, on cells", "T2 sequence (looked up)": "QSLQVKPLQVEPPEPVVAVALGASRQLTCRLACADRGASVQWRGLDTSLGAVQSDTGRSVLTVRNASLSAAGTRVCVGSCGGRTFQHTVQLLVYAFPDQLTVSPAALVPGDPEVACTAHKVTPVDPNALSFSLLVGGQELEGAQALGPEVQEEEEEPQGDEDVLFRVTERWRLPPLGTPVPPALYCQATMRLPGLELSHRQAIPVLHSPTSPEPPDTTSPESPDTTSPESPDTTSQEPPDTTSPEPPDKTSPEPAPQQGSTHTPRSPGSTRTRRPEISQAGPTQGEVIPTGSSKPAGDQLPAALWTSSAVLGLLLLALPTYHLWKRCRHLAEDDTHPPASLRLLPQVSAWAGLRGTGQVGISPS", "experiment": "cell binding", "values": [
      {"binder": "B1", "binding result": "binds"},
      {"binder": "B4", "binding result": "binds"},
      {"binder": "B5", "binding result": "binds"},
      {"binder": "B6", "binding result": "binds"},
      {"binder": "B7", "binding result": "binds"},
      {"binder": "B8", "binding result": "binds"},
      {"binder": "B9", "binding result": "binds"},
      {"binder": "B11", "binding result": "binds"},
      {"binder": "B12", "binding result": "binds"},
      {"binder": "B13", "binding result": "binds"},
      {"binder": "B14", "binding result": "binds"}
    ]},
    {"biological_target": "T1, mouse MAdCAM expressed on cells", "experiment": "cell binding", "remark": "another data set of the same source", "values": [
      {"binder": "B15", "binding result": "binds"},
      {"binder": "B16", "binding result": "no binding"},
      {"binder": "B17", "binding result": "no binding"},
      {"binder": "B18", "binding result": "binds"}
    ]},
    {"biological_target": "T2, human MAdCAM expressed on cells", "experiment": "cell binding", "remark": "another data set of the same source", "values": [
      {"binder": "B15", "binding result": "binds"},
      {"binder": "B16", "binding result": "binds"},
      {"binder": "B17", "binding result": "binds"},
      {"binder": "B18", "binding result": "binds"}
    ]}
  ]
}
